From patent publication US20180002403A1 (published 2018)
Like-named read-outs stand apart in the source and are kept apart here.

What was measured:
Assay in all cases: BIAcore
recombinant IL-17RA [1] = biological target: T1, recombinant IL-17RA (human, UniProt Q96F46 33-320)
recombinant IL-17RA [2] = biological target: T1, recombinant IL-17RA; remark: listed apart in the source
[3] = biological target: T2, Recombinant human IL-17A (Peprotech AF-200-17) (human, UniProt Q16552 24-155)
[4] = biological target: T2, Recombinant human IL-17A (Peprotech …); remark: listed apart in the source

T2 sequence (Q16552 24-155): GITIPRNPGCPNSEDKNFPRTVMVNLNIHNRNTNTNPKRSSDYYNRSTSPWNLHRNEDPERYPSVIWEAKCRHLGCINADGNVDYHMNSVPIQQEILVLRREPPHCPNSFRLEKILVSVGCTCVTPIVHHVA

Row | Kd (recombinant IL-17RA [1]) | Kd (recombinant IL-17RA [2]) | Kd [3] | Kd [4] | Binder
1 | 6 nM | 6 nM | – | – | clone 2.1 VH (VHH) VHH: QVQLVQSGAEVKKPGASVKVSCKASGYPFTSYDINWVRQATGQSLEWMGWMNPNSGDTVYAQKFQGRVTMTRNTSISTAYMELSSLRSEDTAVYFCARGRRDDWKNNYWGQGTLVTVSS
2 | – | 1.4 nM | – | – | clone 2.2 VH (VHH) VHH: QVQLVQSGAEVKKPGASVKVSCKASGYPFTSYDINWVRQATGRSLEWMGWMNPTNGNTVYAQKFQDRVTMTRNTSISTAYMELSSLRSEDTAVYFCARGRRDDWKNNYWGQGTLVTVSS
3 | – | – | 5 nM | 5 nM | clone 1.1 VH (VHH) VHH: EVQLVESGGGLVQPGGSLRLSCAASGFTFSSYSMYWVRQAPGKGLEWVANIKQDGSEKYYVDSVKGRFTISRDNAKNSLFLQMNSLRAEDTAVYYCAKGEILPLHFDYWGQGTLVTVSS
4 | – | – | – | 0.63 nM | clone 1.6 VH (VHH) VHH: EVQLVESGGGLVQPGGSLRLSCAASGFTFSSYSMYWVRQAPGKGLEWVAEIKQDGSEQYYVDSVKGRFTISRDNAKNSLYLQMNSLRAEDTAVYYCAKGEILPLYFDYWGQGTLVTVSS
5 | – | – | – | 1 nM | clone 1.10 VH (VHH) VHH: VQLVESGGGLVQPGGSLRLSCAASGFTFSSYRMYWVRQAPGKGLEWVASIEQDGSEEYYVDSVKGRFTISRDNAKKSLFLQMNSLRAEDTAVYYCAKGEILPLYFDYWGQGTLVTVSS
